Measured values from US20160053277A1, “Compositions Having Dicamba Decarboxylase Activity and Methods of Use” (PIONEER HI-BRED INTERNATIONAL, INC., priority 2013, published 2016).

What was measured:
[1] = Shuffled variant libraries: 14CO2 capturing assay in 384-well format; conditions: decarboxylation activity (carbon dioxide released) compared with unmutated backbone protein SEQ ID NO 133 (DDEC0201)
[2] = Saturation mutagenesis of SEQ ID NO:109: dicamba decarboxylation activity of point mutants (carbon dioxide released); conditions: decarboxylation activity (carbon dioxide released) of point mutant compared with unmutated backbone protein; backbone SEQ ID NO: 109

B1: 133 (protein)
chain: MAQGKVALEEHFAIPETLQDSAGFVPGDYWKELQHRLLDIQDTRLKLMDAHGIETMILSLAAPAVQAIPDRRKAIEIARRANDFLAEECAKRPDRFLAFAALPLQDPDAATEELQRCVNDLGFVGALVNGFSQEGDGQTPLYYDLPQYRPFWGEVEKLDVPFYLHPRNPLPQDSRIYDGHPWLLGPTWAFAQETAVHALRLMASGLFDEHPRLNIILGHMGEGLPYMMYRIDHRIAWVKLPPRYPAKRRFMDYFNENFHITTSGNFRTQTLIDAILEIGADRILFSTDWPFENIDHAADWFNATSIAEADRVKIGRTNARRLFKLDGA
modifications: Dicamba decarboxylase variant
**Q.** Which “Fold Activity” value [1] does the source give for B1 here?
**A.** 1.0

**Q.** And the “Fold Activity” value [2]?
**A.** 1.3

B2: 134 (protein)
chain: MAQGKVALEEHFAIPETLQDSAGFVPGDYWKELQHRLLDIQDTRLKLMDAHGIETMILSLAAPAVQAIPDRRKAIEIARRANDMLAEECAKRPDRFLAFAALPLQDPDAATEELQRCVNDLGFVGALVNGFSQEGDGQTPLYYDLPQYRPFWGEVEKLDVPFYLHPRNPLPQDSRIYDGHPWLLGPTWAFAQETAVHALRLMASGLFDEHPRLNIILGHLGEGLPYMMYRIDHRIAWVHEPPRYPAKRRLMDYFNENFHITTSGNFRTQTLIDAILEIGADRILFSTDWPFENIDHAADWFNATSIAEADRVKIGRTNARRLFKLDGA
modifications: Dicamba decarboxylase variant
**Q.** Which results are given for B2?
**A.** Fold Activity [1]: 1.1; Fold Activity [2]: 1.5

B3: 135 (protein)
chain: MAQGKVALEEHFAIPETLQDSAGFVPGDYWKELQHRLLDIQDTRLRLMDAHGIETMILSLAAPAVQAIPDRRKAIEIARRANDFLAEECAKRPDRFLAFAALPLQDPDAATEELQRCVNDLGFVGALVNGFSVEGDGQTPLYYDLPQYRPFWGEVEKLDVPFYLHPRNPLPQDSRIYDGHPWLLGPTWAFAQETAVHALRLMASGLFDEHPRLNIILGHLGEGLPYMMYRIDHRIAWVKLPPRYPAKRRFMDYFLENFHITTSGNFRTQTLIDAILEIGADRILFSTDWPFENIDHAADWFNATSIAEADRVKIGRTNARRLFKLDGD
modifications: Dicamba decarboxylase variant
**Q.** For B3, which “Fold Activity” value [1] is on record?
**A.** 1.3

**Q.** What about the “Fold Activity” value [2] of the same molecule?
**A.** 1.5

B4: 136 (protein)
chain: MAQGKVALEEHFAIPETLQDSAGFVPGDYWKELQHRLLDIQDTRLKLMDAHGIETMILSLAAPAVQAIPDRRKAIEIARRANDFLAEECAKRPDRFLAFAALPLQDPDAATEELQRCVNTLGFVGALVNGFSVEGDGQTPLYYDLPQYRPFWGEVEKLDVPFYLHPRNPLPQDSRIYDGHPWLLGPTWAFAQETAVHALRLMASGLFDEHPRLNIILGHLGEGLPYMMYRIDHRIAWVHEPPRYPAKRRFMDYFNENFHITTSGNFRTQTLIDAILEIGADRILFSTDWPFENIDHAADWFNATSIAEADRVKIGRTNARRLFKLDGA
modifications: Dicamba decarboxylase variant
**Q.** Which results are given for B4?
**A.** Fold Activity [1]: 1.4; Fold Activity [2]: 1.2

B5: 137 (protein)
chain: MAQGKVALEEHFAIPETLQDSAGFVPGDYWKELQHRLLDIQDTRLKLMDAHGIETMILSLAAPAVQAIPDRRKAIEIARRANDFLAEECAKRPDRFLAFAALPLQDPDAATEELQRCVNTLGFVGALVNGFSQEGDGQTPLYYDLPQYRPFWGEVEKLDVPFYLHPRNPLPQDSRIYDGHPWLLGPTWAFAQETAVHALRLMASGLFDEHPRLNIILGHMGEGLPYMMYRIDHRIAWVHEPPRYPAKRRFMDYFNENFHITTSGNFRTQTLIDAILEIGADRILFSTDWPFENIDHAADWFNATSIAEADRLKIGRTNARRLFKLDGA
modifications: Dicamba decarboxylase variant
**Q.** Which “Fold Activity” value [1] does the source give for B5 here?
**A.** 1.4

**Q.** What about the “Fold Activity” value [2] of the same molecule?
**A.** 1.1

B6: 138 (protein)
chain: MAQGKVALEEHFAIPETLQDSAGFVPGDYWKELQHRLLDIQDTRLKLMDAHGIETMILSLAAPAVQAIPDRRKAIEIARRANDFLAEECAKRPDRFLAFAALPLQDPDAATEELQRCVNDLGFVGALVNGFSQEGDGQTPLYYDLPQYRPFWGEVEKLDVPFYLHPRNPLPQDSRIYDGHPWLLGPTWAFAQETAVHALRLMASGLFDEHPRLNIILGHMGEGLPYMMYRIDHRIAWVHEPPRYPAKRRFMDYFNENFHITTSGNFRTQTLIDAILEIGADRILFSTDWPFENIDHAADWFNATSIAEADRLKIGRTNARRLFKLDLD
modifications: Dicamba decarboxylase variant
**Q.** Which “Fold Activity” value [1] does the source give for B6 here?
**A.** 1.1

**Q.** And the “Fold Activity” value [2]?
**A.** 0.7

B7: 139 (protein)
chain: MAQGKVALEEHFAIPETLQDSAGFVPGDYWKELQHRLLDIQDTRLKLMDAHGIETMILSLAAPAVQAIPDRRKAIEIARRANDFLAEECAKRPDRFLAFAALPLQDPDAATEELQRCVNDLGFVGALVNGFSQEGDGQTPLYYDLPQYRPFWGEVEKLDVPFYLHPRNPLPQDSRIYDGHPWLLGPTWAFAQETAVHALRLMASGLFDEHPRLNIILGHMGEGLPYMMYRIDHRIAWVKLPPRYPAKRRFMDYFNENFHITTSGNFRTQTLIDAILEIGADRILFSTDWPFENIDHAADWFNATSIAEADRLKIGRTNARRLFKLDGD
modifications: Dicamba decarboxylase variant
**Q.** For B7, which “Fold Activity” value [1] is on record?
**A.** 1.1

**Q.** And the “Fold Activity” value [2]?
**A.** 1.4

B8: 140 (protein)
chain: MAQGKVALEEHFAIPETLQDSAGFVPGDYWKELQHRLLDIQDTRLKLMDAHGIETMILSLAAPAVQAIPDRRKAIEIARRANDFLAEECAKRPDRFLAFAALPLQDPDAATEELQRCVNDLGFVGALVNGFSQEGDGQTPLYYDLPQYRPFWGEVEKLDVPFYLHPRNPLPQDSRIYDGHPWLLGPTWAFAQETAVHALRLMASGLFDEHPRLNIILGHLGEGLPYMMYRIDHRIAWVHEPPRYPAKRRFMDYFNENFHITTSGNFRTQTLIDAILEIGADRILFSTDWPFENIDHAADWFNATSIAEADRVKIGRTNARRLFKLDGA
modifications: Dicamba decarboxylase variant
**Q.** Which results are given for B8?
**A.** Fold Activity [1]: 1.1; Fold Activity [2]: 1.1

B9: 141 (protein)
chain: MAQGKVALEEHFAIPETLNDSAGFVPGDYWKELQHRLLDIQDTRLKLMDAHGIETMILSLAAPAVQAIPDRRKAIEIARRANDMLAEECAKRPDRFLAFAALPLQDPDAATEELQRCVNDLGFVGALVNGFSQEGDGQTPLYYDLPQYRPFWGEVEKLDVPFYLHPRNPLPQDSRIYDGHPWLLGPTWAFAQETAVHALRLMASGLFDEHPRLNIILGHMGEGLPYMMYRIDHRIAWVHEPPRYPAKRRFMDYFNENFHITTSGNFRTQTLIDAILEIGADRILFSTDWPFENIDHAADWFNATSIAEADRVKIGRTNARRLFKLDLD
modifications: Dicamba decarboxylase variant
**Q.** For B9, which “Fold Activity” value [1] is on record?
**A.** 0.9

**Q.** And the “Fold Activity” value [2]?
**A.** 1.1

B10: 142 (protein)
chain: MAQGKVALEEHFAIPETLQDSAGFVPGDYWKELQHRLLDIQDTRLKLMDAHGIETMILSLAAPAVQAIPDRRKAIEIARRANDFLAEECAKRPDRFLAFAALPLQDPDAATEELQRTVNDLGFVGALVNGFSQEGDGQTPLYYDLPQYRPFWGEVEKLDVPFYLHPRNPLPQDSRIYDGHPWLLGPTWAFAQETAVHALRLMASGLFDEHPRLNIILGHLGEGLPYMMYRIDHRIAWVHEPPRYPAKRRFMDYFNENFHITTSGNFRTQTLIDAILEIGADRILFSTDWPFENIDHAADWFNATSIAEADRVKIGRTNARRLFKLDLD
modifications: Dicamba decarboxylase variant
**Q.** With B10 as the molecule, how does the “Fold Activity” value [1] read?
**A.** 1.4

**Q.** What about the “Fold Activity” value [2] of the same molecule?
**A.** 1

B11: 143 (protein)
chain: MAQGKVALEEHFAIPETLQDSAGFVPSEYLKELQHRLLDIQDTRLKLMDAHGIETMILSLAAPAVQAIPDRRKAIEIARRANDFLAEECAKRPDRFLAFAALPMQDVDAATEELQRCVNDLGFVGALVNGFSVEGDGQTPLYYDLPQYRPFWGEVEKLDVPFYLHPRNPLPQDSRIYDGHPWLLGPTWAFAQETAVHALRLMASGLFDEHPRLNIILGHMGEGLPYMMYRIDHRIAWVHEPPRYPAKRRFMDYFNENFHITTSGNFRTQTLIDAILEIGADRILFSTDWPFENIDHAADWFNATSIAEADRVKIGRTNARRLFKLDGD
modifications: Dicamba decarboxylase variant
**Q.** What does the source list for B11?
**A.** Fold Activity [1]: 1.3; Fold Activity [2]: 1.2

B12: 144 (protein)
chain: MAQGKVALEEHFAIPETLQDSAGFVPGDYWKELQHRLLDIQDTRLRLMDAHGIETMILSLAAPAVQAIPDRRKAIEIARRANDFLAEECAKRPDRFLAFAALPLQDPDAASEELQRCVNDLGFVGALVNGFSQEGDGQTPLYYDLPQYRPFWGEVEKLDVPFYLHPRNPLPQDSRIYDGHPWLLGPTWAFAQETAVHALRLMASGLFDEHPRLNIILGHMGEGLPYMMYRIDHRIAWVHEPPRYPAKRRFMDYFNENFHITTSGNFRTQTLIDAILEIGADRILFSTDWPFENIDHAADWFNATSIAEADRLKIGRTNARRLFKLDGD
modifications: Dicamba decarboxylase variant
**Q.** Which “Fold Activity” value [1] does the source give for B12 here?
**A.** 1.2

**Q.** What about the “Fold Activity” value [2] of the same molecule?
**A.** 1.2

B13: 145 (protein)
chain: MAQGKVALEEHFAIPETLQDSAGFVPGDYWKELQHRLLDIQDTRLKLMDAHGIETMILSLAAPAVQAIPDRRKAIEIARRANDFLAEECAKRPDRFLAFAALPLQDPDAATEELQRCVNDLGFVGALVNGFSVEGDGQTPLYYDLPQYRPFWGEVEKLDVPFYLHPRNPLPQDSRIYDGHPWLLGPTWAFAQETAVHALRLMASGLFDEHPRLNIILGHMGEGLPYMMYRIDHRIAWVKLPPRYPAKRRFMDYFNENFHITTSGNFRTQTLIDAILEIGADRILFSTDWPFENIDHATDWFNATSIAEADRVKIGRTNARRLFKLDGA
modifications: Dicamba decarboxylase variant
**Q.** With B13 as the molecule, how does the “Fold Activity” value [1] read?
**A.** 1.1

**Q.** And the “Fold Activity” value [2]?
**A.** 1.2

B14: 146 (protein)
chain: MAQGKVALEEHFAIPETLQDSAGFVPGDYWKELQHRLLDIQDTRLKLMDAHGIETMILSLAAPAVQAIPDRRKAIEIARRANDFLAEECAKRPDRFLAFAALPLQDPDAATEELQRCVNDLGFVGALVNGFSQEGDGQTPLYYDLPQYRPFWGEVEKLDVPFYLHPRNPLPQDSRIYDGHPWLLGPTWAFAQETAVHALRLMASGLFDEHPRLNIILGHMGEGLPYMMYRIDHRIAWVKLPPRYPAKRRFMDYFNENFHITTSGNFRTQTLIDAILEIGADRILFSTDWPFENIDHAADWFNATSIAEADRVKIGRTNARRLFKLDGD
modifications: Dicamba decarboxylase variant
**Q.** With B14 as the molecule, how does the “Fold Activity” value [1] read?
**A.** 1.2

**Q.** What about the “Fold Activity” value [2] of the same molecule?
**A.** 1.3
